From patent US20240383994A1

Legend:
[1] = molecular target: human CD40 (hCD40), full length, on cells (human) (UniProt P25942); test: cell-based or functional assay
[2] = molecular target: cynoCD40-mFc (monkey (cyno)); test: flow cytometry, blocking of cynoCD40-mFc (2 µg/mL) binding to CHO-K1-cynoCD40L cells
cynoCD40-mFc (monkey (cyno)), sequence (chain, as listed by the source limits assumed, form in doubt): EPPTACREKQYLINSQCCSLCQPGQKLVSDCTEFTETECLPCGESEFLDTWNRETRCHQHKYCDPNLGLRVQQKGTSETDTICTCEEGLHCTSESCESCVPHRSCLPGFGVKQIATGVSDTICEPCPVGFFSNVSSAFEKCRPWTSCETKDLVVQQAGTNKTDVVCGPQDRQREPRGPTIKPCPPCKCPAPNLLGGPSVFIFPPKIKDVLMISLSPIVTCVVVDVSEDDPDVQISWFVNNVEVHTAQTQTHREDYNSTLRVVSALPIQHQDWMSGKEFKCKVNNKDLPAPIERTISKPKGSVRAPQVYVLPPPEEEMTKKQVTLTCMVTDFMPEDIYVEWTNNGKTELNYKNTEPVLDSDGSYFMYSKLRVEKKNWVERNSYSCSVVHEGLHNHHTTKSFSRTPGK

human CD40 (hCD40), full length, on cells (human), sequence (P25942 21-277 limits assumed): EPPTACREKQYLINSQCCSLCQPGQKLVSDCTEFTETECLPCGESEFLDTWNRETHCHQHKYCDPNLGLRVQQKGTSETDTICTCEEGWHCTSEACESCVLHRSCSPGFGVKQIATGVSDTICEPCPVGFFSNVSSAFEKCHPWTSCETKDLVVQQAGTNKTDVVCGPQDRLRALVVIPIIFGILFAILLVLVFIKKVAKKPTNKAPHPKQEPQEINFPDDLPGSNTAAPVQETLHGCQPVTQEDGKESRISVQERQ

Substance	Inhibition, % of Ramos cell apoptosis at 0.064 ng/L (so in the source) [1] [%]	Inhibition, % of Ramos cell apoptosis at 0.32 ng/L (so in the source) [1] [%]	Inhibition, % of Ramos cell apoptosis at 1.6 ng/L (so in the source) [1] [%]	Inhibition, % of Ramos cell apoptosis at 8 ng/L (so in the source) [1] [%]	Inhibition, % of Ramos cell apoptosis at 40 ng/L (so in the source) [1] [%]	Inhibition, % of Ramos cell apoptosis at 200 ng/L (so in the source) [1] [%]	Inhibition, % of Ramos cell apoptosis at 1000 ng/L (so in the source) [1] [%]	IC50 [2] [µM]
IgG4 isotype control antibody	-12	-9	-10	0	-20	-6	-3	–
Iscalimab (CFZ533) (antibody)	–	–	–	–	–	–	–	0.0241
